Results reported in the supplement of paper PMC9170038.

System: MS2 coat protein
Assay: apparent KD of MS2 coat protein; designed switch direction (-1 OFF switch, 1 ON switch): -1; higher = weaker reporter binding
Method in brief: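 For each design, the apparent KD is the median over clusters of curves fitted to normalised cluster fluorescence. Clusters held RNA switches with common flanks, transcribed on Illumina chips by stalled E. coli RNA polymerase. These were titrated with SNAP-549-labelled MS2 coat protein, doubling from 0.7 or 1.5 nM to 3 µM, without input, with 200 uM small-molecule ligand, or with an oligonucleotide input.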

[1] = Eterna round: R95, input ligand: FMN 200 uM
[2] = Eterna round: R95, input ligand: microRNA oligo, concentration not stated
[3] = Eterna round: R95, input ligand: none
[4] = input ligand: microRNA oligo, concentration not stated

Sequence | apparent KD of MS2 coat protein (input ligand: FMN 200 uM) [nM] | apparent KD of MS2 coat protein (input ligand: none) [nM] | apparent KD of MS2 coat protein [4] [nM] | further results
UUGUAACAUGAGGAUCACCCAUGUGAGGAUAUGGUUAAGUAAUGUAAUGUAAAGUAAUCCAGAAGGCACAAGUU [1st #23] (Eterna round: R97, puzzle: Exclusion 1) | 70.3 | 78.3 |  | 
GGAUCGAGUGUGAGGAUAUGCUGGUCCUUGGAUCAGCAGAAGGCACAUGAGGAUCACCCAUGUGAAGACGGUCC [JL bmx4 3.16] (puzzle: Brourd's mod of Exclusion 4) |  |  |  | apparent KD of MS2 coat protein [1]: 270 nM; apparent KD of MS2 coat protein [2]: 24.7 nM; apparent KD of MS2 coat protein [3]: 25.8 nM
AAGGGUACUUUCGGAACGACAUGAGGAUCACCCAUGUAGACUGAGGAUAUCUACUACUAAGGACGGGAGAAGGCAGUGUAAUGU [Ex NG3 #76] (Eterna round: R96, puzzle: Exclusion NG 3) |  |  | 11.8 | 
CUCGUGCAGCAAAGCUGUACGAGUACAUGAGGAUCACCCAUGUAGGAUAUGGUACGCAAAGCGUGCUAGAAGGACGUGUGUAAG [Mat - Exclusion NG 3 - Mod of JL - D92] (Eterna round: R96, puzzle: Exclusion NG 3) | 118 | 47.7 | 33.4 | 
CUCAUGUCAGGAUAUCAGGCAGGAAGCUGCCAAAAGUGGGAUGAGAAGGGACAUGAGGAUCACCCAUGUAAAUA [Mazasoti] (Eterna round: R97, puzzle: Exclusion 4) | 355 | 218 |  | 
GGUAGAGUGGUAGGAUAUCCGUCUGUUUCAGUCGGAGAAGGACCACAGUCACUGGGUCCAUGUUUCAUGGAGACCUGAUCUACC [pwkr exNG1 F6.9] (Eterna round: R96, puzzle: Exclusion NG 1) | 26.9 | 130 | 59.7 | 
GCCGUUAAGGUAGGAUAUGCUCGGUCUGUGCGUGCAGAAGGGCUGGUCGGCGACUUGAGGAUCACCCAAGUGGUCUUAUAGAAA [Mutated MS2 EX1.21] (Eterna round: R96, puzzle: Exclusion NG 1) | 121 | 64.8 | 142 | 
GAAACGCGAGGAUAUACAGACGAGUCCAUUACGUGUCUCGGACUUGAGGAUCACCCAAGUAGAAGGCGUCUCAG [salish99_ex2_r4_631] (Eterna round: R97, puzzle: Exclusion 2) | 24.8 | 27.6 |  | 
UUGUACAUAGGAUAUAGUUGUUUGUACAUGAGGAUCACCCAUGUUAUGUAUCUUUUGCUUCUAGAAGGAUGUUCUU [JR_E5_Sub005] (puzzle: Exclusion 5) |  |  |  | apparent KD of MS2 coat protein [2]: 32.2 nM
AUAUUAAUAGUAAGGAUAUGCGUGUAUGUAGUUAUGCAGAAGGUACAUGAGGAUCACCCAUGUAUUAAUGUGUG [LRO-BmodExc4-06-Oppy's Opus] (Eterna round: R97, puzzle: Brourd's mod of Exclusion 4) | 21.6 | 17.3 |  | 
GCAUCACAUGUCAGGAUAUGCUGUACCUUGGUACAGCAGAAGGGACAUGAGGAUCACCCAUGUGCCUAUGAUGC [JL-BMX4-4.11] (Eterna round: R97, puzzle: Brourd's mod of Exclusion 4) | 555 | 59.3 |  | 
AGCUGUGGCCGAGGAUAUCCAACCUUAAAUACCGACGUAUAGUCGGACAUGAGGAUCACCCAUGUGGAGAAGGCGGUCUCAGCA [Eli eng2 - 039] (Eterna round: R96, puzzle: Exclusion NG 2) | 62.5 | 47.1 | 28 | 
UUUAAUUUUUUUUUUUUACAAGCUUUUUGCUCGUCUUAUACAUGAGGAUCACCCAUGUAGGUGAAGGGUAAAUUAUC [JMF 81] (puzzle: Sensor v3, turn-off variant 2) |  |  |  | apparent KD of MS2 coat protein [1]: 17.9 nM; apparent KD of MS2 coat protein [2]: 77.7 nM; apparent KD of MS2 coat protein [3]: 15.8 nM
ACCAAUCAUGUAGGAUAUGCGUGGCGAAGCUAUGCAGAAGGACAUGAGGAUCACCCAUGUGCUUCCGUCUGCGUACAGACGGUA [Mat - Exclusion NG 1 - Mod of JL - D17] (Eterna round: R96, puzzle: Exclusion NG 1) | 49.2 | 92.3 | 38.3 | 
CCAUGUAGAGGAUAUCUUAAGCUAGACAUGAGGAUCACCCAUGUGACUAUUCCUAUGAGCGGAGAAGGCUGAACCA [Eternabot (L2) Solution 64] (Eterna round: R97, puzzle: Exclusion 5) | 29.7 | 29.6 |  | 
ACUUCACAUGAGGAUCACCCAUGUGAGGAUAUCGUCGAGGAUGUAAUGCCAUCCGUGACGAGAAGGCGCAUGGU [Exclusion 1 (Mod 2.1 solution 40 by Eternabot)] (Eterna round: R97, puzzle: Exclusion 1) | 147 | 31.1 |  | 
UAUUUACAUGAGGAUCACCCAUGUCAGGAUAUGCGUCUAUCGUCGAAAGACGAUAGCCGCAGAAGGGACAAUAU [LRO-Excl01-21 mod derived from EliFisker 4.24] (Eterna round: R97, puzzle: Exclusion 1) | 87.3 | 58.1 |  | 

Sequence | apparent KD of MS2 coat protein (input ligand: FMN 200 uM) [nM] | apparent KD of MS2 coat protein (input ligand: none) [nM] | apparent KD of MS2 coat protein [4] [nM] | further results
GGAUCGAGUGUGAGGAUAUGCUGGUCGUAAGAUCAGCAGAAGGCACAUGAGGAUCACCCAUGUGAAAACGGUCC [Mat - Exclusion 4 - JL Mod - D72] (puzzle: Brourd's mod of Exclusion 4) |  |  |  | apparent KD of MS2 coat protein [2]: 25.6 nM
GAUCCACAUGAGGAUCACCCAUGUGAGGAUAUGAUACUAUGUACUUCGGUACAUAGUAUCAGAAGGCACAGGUC [Ex1-3: 56] (Eterna round: R96, puzzle: Exclusion 1) | 333 | 52.9 | 50.7 | 
CGAAGAUGAGGAUAUGCUACAGACAUGUUCGCGCAGAAGUAACAUGAGGAUCACCCAUGUAGAAGGCAUCUUUU [Eternabot (L2) Solution 88] (Eterna round: R97, puzzle: Exclusion 2) | 36.5 | 35.9 |  | 
UAUAUAUAGUAAGGAUAUGUAUAUAUUUGAUAAACAGAAGGUACUGACAUGAGGAUCACCCAUGUUUUAGUGUGGGCAUGUAGA [JMF's solution 64] (Eterna round: R96, puzzle: Exclusion NG 1) |  |  | 48.4 | 
GGGCCGCAAGUAAGGAUAUCCCUUAAAUUGUGAGCGGAGAAGGUACUUGAGGAUCACCCAAGUAUAGAAGAAAA [Arinbear] (Eterna round: R97, puzzle: Brourd's mod of Exclusion 4) | 54.2 | 15.2 |  | 
GGUUAUUGCAAGGAUAUGCUUUUUUUUGAUAUUGCAGAAGGUGCAACAUGAGGAUCACCCAUGUUGGAGGGAUU [JR_E6_Sub020] (puzzle: Exclusion 6) |  |  |  | apparent KD of MS2 coat protein [2]: 32.7 nM
UAUAUAUAGUAAGGAUAUGUAUUAAGUUUAUAAACAGAAGGUACUGACAUGAGGAUCACCCAUGUUUUAGUGUGGGCAUGUAGA [JMF's solution 76] (Eterna round: R96, puzzle: Exclusion NG 1) | 122 | 78.6 | 52.6 | 
UUCCUCUCUUCUUUGUCUCACAUGAGGAUCACCCAUGUAACAUAGGAUAUGCUUGGUAUUUAUAUGCAGAAGGAUGUUAGUAUU [JR_ExcNG3_Sub083] (Eterna round: R96, puzzle: Exclusion NG 3) | 60.8 | 25.7 | 19 | 
CAUCCGGCAGGAUAUACAUGAGGAUCACCCAUGUCAGAAAGCAAAUUGUGCGACUCAGGUAGAAGGGUUGGACU [Ederusat] (puzzle: Exclusion 3) |  |  |  | apparent KD of MS2 coat protein [2]: 21.1 nM
ACCGAUGUGCAAGGAUAUGACAUGAGGAUCACCCAUGUCAAAACAAGAAGAACGGGUGUGCCUCCUUAGAAGGUGCACAAACGA [Eternabot solution 2] (Eterna round: R96, puzzle: Exclusion NG 2) | 26.1 | 24 | 17.1 | 
GUCUCACAUGAGGAUCACCCAUGUGAGGAUAUACUGGGCAUUCUGGUGGCAGGUGGGCGUAGAAGGCACGUGGG [Eternabot (L1) Solution 82] (Eterna round: R97, puzzle: Exclusion 1) | 33.8 | 19.4 |  | 
AACCUAGUCAUAGGAUAUACAGGCAAAGCCAAAGUAGAAGGAUGACACAUGAGGAUCACCCAUGUGGUCCUUGAACAAAAUAAC [Esatier] (Eterna round: R96, puzzle: Exclusion NG 1) |  |  | 24.1 | 
UAUCCACAUGAGGAUCACCCAUGUGAGGAUAUGUCCAUAUUCGGCAAAUCGGAUAUGGACAGAAGGCACACCGG [JR_Exclusion1_Sub011] (Eterna round: R96, puzzle: Exclusion 1) | 114 | 35.2 | 28.5 | 
GGUGCGUAUGUGAGGAUAUGCUGGUCCUUGGCUCAGCAGAAGGCACAUGAGGAUCACCCAUGUGGUGUCGUACC [salish99_Bmod_Ex4_027] (puzzle: Brourd's mod of Exclusion 4) |  |  |  | apparent KD of MS2 coat protein [2]: 229 nM
UAAUAGUGAGGAUAUACAGAAUCUGGGUCCCGCGUGUUGAGACAUGAGGAUCACCCAUGUAGAAGGCACAAAAU [Tetiage] (puzzle: Exclusion 2) |  |  |  | apparent KD of MS2 coat protein [2]: 112 nM
CUAGCGUAUGUAGGAUAUCGGACUGUUUCAGUCUGAGAAGGACAUGAGGAUCACCCAUGUAUAGCUACGUGAGUAGCUCGCUAG [JL ENG1 3.94] (Eterna round: R96, puzzle: Exclusion NG 1) |  |  | 17.2 | 
CCCUCACAUGAGGAUCACCCAUGUCAGGAUAUUCAAAGCGCAAAUGCGCCAAAUGCAGGAAGAAGGGACGUGCC [Bisoar] (puzzle: Exclusion 1) |  |  |  | apparent KD of MS2 coat protein [2]: 13.3 nM
